Consider one substance from PMC7295969.

The test has as its target Orfelia fultoni luciferase (Orfelia fultoni (endogenous in larvae)). Nature of the test: native gel or EMSA; 6% Native-PAGE of the luciferase fraction from anion exchange, no SDS or mercaptoethanol, 25 mM Tris/192 mM glycine, ice-cooled; band shown by bioluminescence with hot extract; the luminescent ~220 kDa band was eluted and re-run on denaturing SDS-PAGE (single ~70 kDa band). (In general: Mobility shift assays separate free from complexed probe on a gel.)

One may read the stoichiometry N as the number of molecules, sites or subunits per partner or assembly. As for Orfelia fultoni luciferase (enzyme), the stoichiometry N came out at 3.
